Measured values taken from patent US20140274782A1, “AFFINITY REAGENTS AND METHODS FOR DETECTION, PURIFICATION, AND PROTEOMIC ANALYSIS OF METHYLATED PROTEINS” (The Board of Trustees of the Leland Stanford Junior …, priority 2013, published 2014).

B1: ZC3H11A (protein, UniProt O75152 1-810, looked up)
Zinc finger CCCH …: MPNQGEDCYFFFYSTCTKGDSCPFRHCEAAIGNETVCTLWQEGRCFRQVCRFRHMEIDKKRSEIPCYWENQPTGCQKLNCAFHHNRGRYVDGLFLPPSKTVLPTVPESPEEEVKASQLSVQQNKLSVQSNPSPQLRSVMKVESSENVPSPTHPPVVINAADDDEDDDDQFSEEGDETKTPTLQPTPEVHNGLRVTSVRKPAVNIKQGECLNFGIKTLEEIKSKKMKEKSKKQGEGSSGVSSLLLHPEPVPGPEKENVRTVVRTVTLSTKQGEEPLVRLSLTERLGKRKFSAGGDSDPPLKRSLAQRLGKKVEAPETNIDKTPKKAQVSKSLKERLGMSADPDNEDATDKVNKVGEIHVKTLEEILLERASQKRGELQTKLKTEGPSKTDDSTSGARSSSTIRIKTFSEVLAEKKHRQQEAERQKSKKDTTCIKLKIDSEIKKTVVLPPIVASRGQSEEPAGKTKSMQEVHIKTLEEIKLEKALRVQQSSESSTSSPSQHEATPGARRLLRITKRTGMKEEKNLQEGNEVDSQSSIRTEAKEASGETTGVDITKIQVKRCETMREKHMQKQQEREKSVLTPLRGDVASCNTQVAEKPVLTAVPGITRHLTKRLPTKSSQKVEVETSGIGDSLLNVKCAAQTLEKRGKAKPKVNVKPSVVKVVSSPKLAPKRKAVEMHAAVIAAVKPLSSSSVLQEPPAKKAAVAVVPLVSEDKSVTVPEAENPRDSLVLPPTQSSSDSSPPEVSGPSSSQMSMKTRRLSSASTGKPPLSVEDDFEKLIWEISGGKLEAEIDLDPGKDEDDLLLELSEMIDS
B2: Heterogeneous nuclear ribonucleoprotein L (protein, UniProt P14866 1-589, looked up)
Heterogeneous nuclear …: MSRRLLPRAEKRRRRLEQRQQPDEQRRRSGAMVKMAAAGGGGGGGRYYGGGSEGGRAPKRLKTDNAGDQHGGGGGGGGGAGAAGGGGGGENYDDPHKTPASPVVHIRGLIDGVVEADLVEALQEFGPISYVVVMPKKRQALVEFEDVLGACNAVNYAADNQIYIAGHPAFVNYSTSQKISRPGDSDDSRSVNSVLLFTILNPIYSITTDVLYTICNPCGPVQRIVIFRKNGVQAMVEFDSVQSAQRAKASLNGADIYSGCCTLKIEYAKPTRLNVFKNDQDTWDYTNPNLSGQGDPGSNPNKRQRQPPLLGDHPAEYGGPHGGYHSHYHDEGYGPPPPHYEGRRMGPPVGGHRRGPSRYGPQYGHPPPPPPPPEYGPHADSPVLMVYGLDQSKMNCDRVFNVFCLYGNVEKVKFMKSKPGAAMVEMADGYAVDRAITHLNNNFMFGQKLNVCVSKQPAIMPGQSYGLEDGSCSYKDFSESRNNRFSTPEQAAKNRIQHPSNVLHFFNAPLEVTEENFFEICDELGVKRPSSVKVFSGKSERSSSGLLEWESKSDALETLGFLNHYQMKNPNGPYPYTLKLCFSTAQHAS
B3: PEF1 (protein, UniProt Q9UBV8 1-284, looked up)
Peflin: MASYPYRQGCPGAAGQAPGAPPGSYYPGPPNSGGQYGSGLPPGGGYGGPAPGGPYGPPAGGGPYGHPNPGMFPSGTPGGPYGGAAPGGPYGQPPPSSYGAQQPGLYGQGGAPPNVDPEAYSWFQSVDSDHSGYISMKELKQALVNCNWSSFNDETCLMMINMFDKTKSGRIDVYGFSALWKFIQQWKNLFQQYDRDRSGSISYTELQQALSQMGYNLSPQFTQLLVSRYCPRSANPAMQLDRFIQVCTQLQVLTEAFREKDTAVQGNIRLSFEDFVTMTASRML
B4: WD repeat-containing protein 70 (protein, UniProt Q9NW82 1-654, looked up)
WD repeat-containing protein …: MERSGPSEVTGSDASGPDPQLAVTMGFTGFGKKARTFDLEAMFEQTRRTAVERSRKTLEAREKEEEMNREKELRRQNEDIEPTSSRSNVVRDCSKSSSRDTSSSESEQSSDSSDDELIGPPLPPKMVGKPVNFMEEDILGPLPPPLNEEEEEAEEEEEEEEEEENPVHKIPDSHEITLKHGTKTVSALGLDPSGARLVTGGYDYDVKFWDFAGMDASFKAFRSLQPCECHQIKSLQYSNTGDMILVVSGSSQAKVIDRDGFEVMECIKGDQYIVDMANTKGHTAMLHTGSWHPKIKGEFMTCSNDATVRTWEVENPKKQKSVFKPRTMQGKKVIPTTCTYSRDGNLIAAACQNGSIQIWDRNLTVHPKFHYKQAHDSGTDTSCVTFSYDGNVLASRGGDDSLKLWDIRQFNKPLFSASGLPTMFPMTDCCFSPDDKLIVTGTSIQRGCGSGKLVFFERRTFQRVYEIDITDASVVRCLWHPKLNQIMVGTGNGLAKVYYDPNKSQRGAKLCVVKTQRKAKQAETLTQDYIITPHALPMFREPRQRSTRKQLEKDRLDPLKSHKPEPPVAGPGRGGRVGTHGGTLSSYIVKNIALDKTDDSNPREAILRHAKAAEDSPYWVSPAYSKTQPKTMFAQVESDDEEAKNEPEWKKRKI

Key:
G9a and GLP = target: T1, G9a and GLP (Homo sapiens, UniProt Q96KQ7+Q9H9B1); assay: Triple SILAC pull-down after UNC0638 treatment of 293T cells, DMSO/UNC0638 ratio of protein captured by 3×MBT; format: cell-based; set-up: cells were treated for 24 hours with UNC0638 at 2.5 μM or DMSO vehicle control; endogenous in cells; host or cells: HEK 293T; conditions: for Relative to UNC0638 UNC Heavy / Relative to UNC0638 UNC Light: SILAC ratio DMSO/UNC0638 of protein pulled down with 3xMBT; for Relative to UNC0638 UNC Heavy: UNC0638 in heavy SILAC media; for Relative to UNC0638 UNC Light: UNC0638 in light SILAC media; for Relative to UNC0638 Average: average of UNC Light and UNC Heavy experiments; for Protein Ratios DMSO/UNC0638: SILAC ratio of protein captured by 3xMBT, 293T cells treated 24 hours with UNC0638 at 2.5 μM or DMSO;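 as to all read-outs here: mass spectrometry (Q-Exactive) SILAC quantitation, DMSO/UNC0638 ratio computed after subtracting 3×MBTD355N mutant pull-down background, only proteins with at least twofold 3×MBT over mutant signal considered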
T1 sequence (Q96KQ7 2-1210 limits assumed): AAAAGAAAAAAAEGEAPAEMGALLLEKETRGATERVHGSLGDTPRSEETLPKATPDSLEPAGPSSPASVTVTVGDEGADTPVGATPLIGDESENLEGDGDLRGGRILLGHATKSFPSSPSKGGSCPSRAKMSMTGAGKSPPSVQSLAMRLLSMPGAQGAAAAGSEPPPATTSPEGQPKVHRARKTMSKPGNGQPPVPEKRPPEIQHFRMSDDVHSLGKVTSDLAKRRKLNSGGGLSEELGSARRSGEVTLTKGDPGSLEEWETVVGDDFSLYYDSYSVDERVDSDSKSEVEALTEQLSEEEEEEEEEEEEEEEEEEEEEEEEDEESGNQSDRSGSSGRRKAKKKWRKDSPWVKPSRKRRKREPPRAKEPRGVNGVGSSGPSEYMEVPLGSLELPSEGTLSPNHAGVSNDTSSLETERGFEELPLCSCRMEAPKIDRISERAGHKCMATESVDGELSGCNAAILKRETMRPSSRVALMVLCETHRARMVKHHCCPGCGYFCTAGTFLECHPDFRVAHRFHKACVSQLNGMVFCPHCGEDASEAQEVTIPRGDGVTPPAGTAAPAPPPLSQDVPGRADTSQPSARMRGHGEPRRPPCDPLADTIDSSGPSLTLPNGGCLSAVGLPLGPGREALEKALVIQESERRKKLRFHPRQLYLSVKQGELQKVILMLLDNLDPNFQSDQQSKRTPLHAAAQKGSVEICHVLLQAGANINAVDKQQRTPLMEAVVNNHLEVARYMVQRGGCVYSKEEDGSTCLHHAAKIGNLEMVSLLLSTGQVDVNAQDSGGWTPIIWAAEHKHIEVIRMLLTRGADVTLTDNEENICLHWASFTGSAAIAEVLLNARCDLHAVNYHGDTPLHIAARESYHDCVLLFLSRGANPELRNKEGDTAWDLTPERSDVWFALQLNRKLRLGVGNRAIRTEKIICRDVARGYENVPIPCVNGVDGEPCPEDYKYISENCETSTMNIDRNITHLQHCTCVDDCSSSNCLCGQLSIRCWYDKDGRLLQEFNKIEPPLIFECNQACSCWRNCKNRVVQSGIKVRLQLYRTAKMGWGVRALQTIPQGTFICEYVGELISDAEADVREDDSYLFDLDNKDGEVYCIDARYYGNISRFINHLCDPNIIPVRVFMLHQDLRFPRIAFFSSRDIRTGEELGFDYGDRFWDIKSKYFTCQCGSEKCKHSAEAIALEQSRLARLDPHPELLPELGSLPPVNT
T1 sequence (Q9H9B1 2-1298 limits assumed): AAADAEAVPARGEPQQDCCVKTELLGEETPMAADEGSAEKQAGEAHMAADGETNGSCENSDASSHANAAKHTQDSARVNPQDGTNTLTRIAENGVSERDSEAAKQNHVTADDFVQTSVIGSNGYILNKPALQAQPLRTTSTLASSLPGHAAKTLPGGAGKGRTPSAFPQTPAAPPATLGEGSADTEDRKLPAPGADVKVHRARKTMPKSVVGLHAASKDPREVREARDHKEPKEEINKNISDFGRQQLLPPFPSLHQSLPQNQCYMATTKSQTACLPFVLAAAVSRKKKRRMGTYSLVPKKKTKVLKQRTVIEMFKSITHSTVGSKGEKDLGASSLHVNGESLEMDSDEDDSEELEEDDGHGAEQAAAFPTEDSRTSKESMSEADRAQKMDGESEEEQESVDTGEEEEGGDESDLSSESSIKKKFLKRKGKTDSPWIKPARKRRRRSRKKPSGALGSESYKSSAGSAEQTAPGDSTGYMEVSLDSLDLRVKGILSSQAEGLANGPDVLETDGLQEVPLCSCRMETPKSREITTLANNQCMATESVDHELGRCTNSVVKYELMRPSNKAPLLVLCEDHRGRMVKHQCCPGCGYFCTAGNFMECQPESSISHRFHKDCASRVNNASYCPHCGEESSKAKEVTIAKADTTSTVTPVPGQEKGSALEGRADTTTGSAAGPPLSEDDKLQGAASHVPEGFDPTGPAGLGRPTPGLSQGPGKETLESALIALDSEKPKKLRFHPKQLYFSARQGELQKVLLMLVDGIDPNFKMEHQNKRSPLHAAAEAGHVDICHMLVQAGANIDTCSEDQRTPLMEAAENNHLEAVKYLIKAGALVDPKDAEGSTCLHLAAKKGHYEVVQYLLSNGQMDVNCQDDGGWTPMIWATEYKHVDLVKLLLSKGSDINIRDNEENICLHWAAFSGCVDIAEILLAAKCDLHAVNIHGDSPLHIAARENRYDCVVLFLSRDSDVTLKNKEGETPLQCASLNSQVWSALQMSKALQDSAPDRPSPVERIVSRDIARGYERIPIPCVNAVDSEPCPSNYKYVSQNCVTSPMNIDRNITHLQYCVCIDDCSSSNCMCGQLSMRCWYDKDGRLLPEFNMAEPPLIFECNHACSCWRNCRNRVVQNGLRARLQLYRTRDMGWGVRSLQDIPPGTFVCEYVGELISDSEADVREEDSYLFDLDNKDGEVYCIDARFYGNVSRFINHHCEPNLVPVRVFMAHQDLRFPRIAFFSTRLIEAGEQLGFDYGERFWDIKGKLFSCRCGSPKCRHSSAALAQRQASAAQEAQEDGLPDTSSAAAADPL

3×MBT domain of L3MBTL1 = assay: Triple SILAC pull-down, 3xMBT/3xMBTD355N ratio (cytoplasmic, nuclear and chromatin fractions of 293T cells); format: binding, human; conditions: SILAC ratio; for 3xMBT/D355N UNC Heavy / 3xMBT/D355N UNC Light: pull-down 3xMBT vs 3xMBTD355N; for 3xMBT/D355N UNC Heavy: experiment with UNC0638 in heavy SILAC media; for 3xMBT/D355N UNC Light: experiment with UNC0638 in light SILAC media; for Protein Ratios 3xMBT/D355N: pull-down by 3xMBT vs 3xMBTD355N, 293T cells;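 as to all read-outs here: proteins quantified with MaxQuant, requiring at least two unique peptides and quantification in both label directions, normalized to the mean of proteins from a digested loading control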

| Molecule | Relative to UNC0638 UNC Heavy (G9a and GLP) | Relative to UNC0638 UNC Light (G9a and GLP) | Relative to UNC0638 Average (G9a and GLP) | 3xMBT/D355N UNC Heavy (3×MBT domain of L3MBTL1) | 3xMBT/D355N UNC Light (3×MBT domain of L3MBTL1) | Protein Ratios DMSO/UNC0638 (G9a and GLP) | Protein Ratios 3xMBT/D355N (3×MBT domain of L3MBTL1) |
| --- | --- | --- | --- | --- | --- | --- | --- |
| B1 | 0.32 log base 2 | 0.12 log base 2 | 0.22 log base 2 | 2.23 log base 2 | 2.81 log base 2 | – | – |
| B2 | – | – | – | – | – | 1.3 | 2.4 |
| B3 | 0.30 log base 2 | 0.17 log base 2 | 0.24 log base 2 | 1.48 log base 2 | 1.78 log base 2 | – | – |
| B4 | – | – | – | – | – | 1.3 | 5.9 |
